# Molecular target: full-length PbgA protein with a carboxyl-terminal 6XHis tag (S. Typhimurium)
# Experiment: SEC-MALS
substance,measurement,value
full-length PbgA protein with a carboxyl-terminal 6XHis tag (natural protein),stoichiometry N,4

# — PMC4978220
